Results as given in patent US20250136692A1 (GEORGIAMUNE, published 2025).

Target: PD-1 on human CD4+ T cells (human, UniProt Q15116 25-288)
Assay: cell-based or functional assay

PD-1 on human CD4+ T cells, sequence (Q15116 25-288 limits assumed): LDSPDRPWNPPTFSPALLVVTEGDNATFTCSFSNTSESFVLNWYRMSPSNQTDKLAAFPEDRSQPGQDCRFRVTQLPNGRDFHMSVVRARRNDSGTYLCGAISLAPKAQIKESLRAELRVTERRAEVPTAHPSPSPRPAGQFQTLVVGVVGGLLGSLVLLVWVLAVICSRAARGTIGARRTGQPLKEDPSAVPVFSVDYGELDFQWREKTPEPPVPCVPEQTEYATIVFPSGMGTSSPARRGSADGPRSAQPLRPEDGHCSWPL

IFN-γ levels in the supernatants of human CD4 T cells (ELISA), 4G9-2 at 25 µg/mL for 72 hours [fold] | ITK/SHP2 ratio (normalized to levels of PD-1), Protein A immunoprecipitation and Western blot [fold] | Binder
3 |  | 4G9-2 (antibody, human IgG1, kappa, V domains shown) VH: QVQLVQSGAEVKKPGASVKVSCKASGYTFTTYGINWVRQATGQGLEWMGWINTYSGVPGYAQKFQGRVTMTLNTSISTAYMELSSLRSEDTAVYYCARGSGGFAYWGQGTLVTVSS VL: not shown
 | 3 | 4G9-12 (antibody, V domains shown) VH: QVQLVQSGAEVKKPGASVKVSCKASGYTFTTYGINWVRQATGQGLEWMGWINTYSGVPGYAQKFQGRVTMTLDTSISTAYMELSSLRSEDTAVYYCARGSGGFAYWGQGTLVTVSS VL: not shown
